Substitutions are numbered along the chain they refer to. Like-named read-outs stand apart in the source and are kept apart here. Each block holds one binder with its values, some of them ahead of it.
What was measured:
[1] = target: 6H-GSG-VDVAD-BIWA4; test: cell-based or functional assay
[2] = target: 6H-GSG-VDVAD-BIWA4; test: cell-based or functional assay; remark: listed apart in the source

6H-GSG-VDVAD-BIWA4, sequence (scFv, as listed by the source): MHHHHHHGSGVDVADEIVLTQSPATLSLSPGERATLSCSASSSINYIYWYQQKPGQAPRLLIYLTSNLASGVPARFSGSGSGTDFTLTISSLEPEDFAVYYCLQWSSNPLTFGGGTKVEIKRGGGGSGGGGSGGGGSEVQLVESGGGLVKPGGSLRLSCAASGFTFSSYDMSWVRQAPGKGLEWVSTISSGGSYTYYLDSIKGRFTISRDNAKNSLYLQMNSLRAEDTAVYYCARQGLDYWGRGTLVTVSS

KM [1]: 0.00016 | KM [2]: 0.00016
B1: T7AC_6H_mS9ProE (enzyme)
chain: MLEDPERNKERKEAELQAQTAEQHHHHHHGKNHAGSPGCEESAAGKEKLPKMRLPTRSDMICGYACLKGTAAMRNTKRGSWYIEALAQVFSERACDMHVADMLVKVNALIKDREGYAPGTEFHRCKVMSEYCSTLCRHLYLFPGHPPTGSGPVCLQVKPCTPEFYQTHFQLAYRLQSRPRGLALVLSNVHFTDEKELEFRSGGDVDHSTLVTLFKLLGYDVHVLCDQTAQEMQEKLQNFAQLPAHRGTDSCIVALLSHGVEGAIYGVDGKLLQLQEVFQLFDNANCPSLQNKPKMFFIQACRGEETERGVDQQD

KM [1]: 0.00023 | KM [2]: 0.00023
B2: T7AC_6H_mS9ProD (enzyme)
chain: B1 chain with E307D
